Reference: US20240092918A1 (Novartis, published 2024)

T1: Human CCR7 (human, UniProt P32248 25-378)
T1 sequence: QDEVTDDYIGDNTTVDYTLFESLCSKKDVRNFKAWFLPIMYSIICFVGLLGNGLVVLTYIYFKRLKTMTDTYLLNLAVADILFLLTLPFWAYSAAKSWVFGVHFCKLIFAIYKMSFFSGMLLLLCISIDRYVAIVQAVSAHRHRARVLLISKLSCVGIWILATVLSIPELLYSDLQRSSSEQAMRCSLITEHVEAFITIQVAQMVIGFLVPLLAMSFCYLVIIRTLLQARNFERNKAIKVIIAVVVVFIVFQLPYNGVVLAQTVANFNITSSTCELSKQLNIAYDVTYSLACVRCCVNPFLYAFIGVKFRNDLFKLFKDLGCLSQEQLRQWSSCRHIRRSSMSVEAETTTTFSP

T2: Mouse CCR7 (mouse, UniProt P47774 25-378)
T2 construct: On NIH3T3 cells or CD4+ T cells of CD-1 mice; also called NIH3T3.mouse CCR7
T2 sequence: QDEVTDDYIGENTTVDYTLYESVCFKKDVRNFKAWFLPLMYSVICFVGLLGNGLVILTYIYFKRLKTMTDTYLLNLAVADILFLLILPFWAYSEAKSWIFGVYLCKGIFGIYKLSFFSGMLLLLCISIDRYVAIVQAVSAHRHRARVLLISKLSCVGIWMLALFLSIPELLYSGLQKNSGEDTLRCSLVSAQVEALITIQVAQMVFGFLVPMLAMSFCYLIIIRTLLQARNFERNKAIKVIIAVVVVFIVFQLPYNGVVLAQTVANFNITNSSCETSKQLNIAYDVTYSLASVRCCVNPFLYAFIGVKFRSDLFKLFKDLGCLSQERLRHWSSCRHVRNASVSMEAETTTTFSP

T3: Rat CCR7 (rat, UniProt P47774 25-378 (mouse entry))
T3 construct: On NIH3T3 cells or CD4+ T cells of Wistar rats; also called NIH3T3.rat CCR7
T3 chain: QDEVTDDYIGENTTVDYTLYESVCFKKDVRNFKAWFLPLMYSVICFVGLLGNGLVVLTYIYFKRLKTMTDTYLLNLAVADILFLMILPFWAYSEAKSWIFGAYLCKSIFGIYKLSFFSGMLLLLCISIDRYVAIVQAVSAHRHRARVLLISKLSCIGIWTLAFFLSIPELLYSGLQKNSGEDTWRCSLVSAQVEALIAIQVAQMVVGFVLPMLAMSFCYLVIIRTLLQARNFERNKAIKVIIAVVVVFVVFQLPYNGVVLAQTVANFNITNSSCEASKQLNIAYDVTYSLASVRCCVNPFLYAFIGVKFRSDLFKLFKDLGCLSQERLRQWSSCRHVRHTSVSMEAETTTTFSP

T4: recombinant CCR7 (Origene #TP306614) (human, UniProt P32248 25-378, limits assumed)
T4 construct: Bought protein coated on ELISA plates; also called recombinant hCCR7
T4 sequence (looked up): T1 sequence

B1: 674J13 (Humanized, CysMab DAPA) (antibody, human IgG1, kappa, V domains shown)
VH: DVQLQESGPGLVKPSQTLSLTCTVSGYSITSGYSWHWIRQHPGKGLEWMAHIHSSGSTNYNPSLKSRITISRDTSKNQFSLKLSSVTAADTAVYYCARGGVQAFAYWGQGTLVTVSS
VL: EIVLTQSPATLSASPGERVTMSCSASSSVIYMHWYQQKPGQAPRRWIYDTSKLASGVPARFSGSGSGTDYTLTISSMEPEDAAVYYCQQWSSNPLTFGQGTKLEIKR
notes: Human IgG1 kappa, E152C/S375C, D265A/P329A; In the pHrodo assay it carried maleimide-pHrodo (DAR 4); also called 674J13.CysMab.DAPA; 674J13.DAPA
B2: 121G12 humanized CysMab (Fc Wild Type) (antibody, human IgG1, V domains shown)
VH: EVQLVESGGGLVKPGGSLRLSCAASGFTFSTYAMSWVRQAPGKGLEWVATISDAGSYSYYPDNVKGRFTISRDNAKNSLYLQMNSLRAEDTAVYYCARRGSRYEEYYVMDYWGQGTTVTVSS
VL: EIVLTQSPATLSVSPGERVTLSCRASQSISNNLHWYQQKPGQAPRLLIKYASQSISGIPARFSGSGSGTDFTLTISSVEPEDFGVYFCQQSSSWLTFGQGTKLEIK
notes: Human IgG1 kappa with E152C/S375C (CysMab) and wild type Fc
B3: 121G12 (Humanized CysMab, DAPA) (antibody, human IgG1, kappa)
heavy: EVQLVESGGGLVKPGGSLRLSCAASGFTFSTYAMSWVRQAPGKGLEWVATISDAGSYSYYPDNVKGRFTISRDNAKNSLYLQMNSLRAEDTAVYYCARRGSRYEEYYVMDYWGQGTTVTVSSASTKGPSVFPLAPSSKSTSGGTAALGCLVKDYFPCPVTVSWNSGALTSGVHTFPAVLQSSGLYSLSSVVTVPSSSLGTQTYICNVNHKPSNTKVDKRVEPKSCDKTHTCPPCPAPELLGGPSVFLFPPKPKDTLMISRTPEVTCVVVAVSHEDPEVKFNWYVDGVEVHNAKTKPREEQYNSTYRVVSVLTVLHQDWLNGKEYKCKVSNKALAAPIEKTISKAKGQPREPQVYTLPPSREEMTKNQVSLTCLVKGFYPCDIAVEWESNGQPENNYKTTPPVLDSDGSFFLYSKLTVDKSRWQQGNVFSCSVMHEALHNHYTQKSLSLSPGK
light: EIVLTQSPATLSVSPGERVTLSCRASQSISNNLHWYQQKPGQAPRLLIKYASQSISGIPARFSGSGSGTDFTLTISSVEPEDFGVYFCQQSSSWLTFGQGTKLEIKRTVAAPSVFIFPPSDEQLKSGTASVVCLLNNFYPREAKVQWKVDNALQSGNSQESVTEQDSKDSTYSLSSTLTLSKADYEKHKVYACEVTHQGLSSPVTKSFNRGEC
notes: Human IgG1 kappa, E152C/S375C, D265A/P329A; In the pHrodo assay it carried maleimide-pHrodo (DAR 4); also called 121G12.CysMab.DAPA; 121G12.DAPA

Tests used:
Human CCR7 [1] = biological target: T1, Human CCR7; assay: cell-based or functional assay
Human CCR7 [2] = biological target: T1, Human CCR7; assay: FACS competition on DEL cells (CCR7+), antibody titrated up to 100 nM applied together with the competitor CCL19 kept at 1 uM (panel 'ligand 1uM'), detection anti-hFc.PE, MFI [panel ligand 1uM]
Mouse CCR7 = biological target: T2, Mouse CCR7; assay: FACS, NIH3T3 cell series and CD4+ T cells
Method: (§1) For this purpose, CCR7 positive cells were harvested (adherent cells were detached with Accutase), washed twice with FACS buffer (PBS/3% FCS/0.02% sodium azide) and diluted to approximately 2×10⁶ cells/ml in FACS buffer. All subsequent steps were done on ice to prevent internalization of the receptor. 100 μl cell suspension/well were transferred into 96-well U-bottom plates (Falcon). 2×10⁵ cells/well were incubated with a serial dilution of antibody concentrations of the anti-CCR7 antibody-of-interest ranging across several logs, starting at a high of 100 nM for 60 minutes at 4° C., gently shaking. Following incubation, cells were spun down (1200 rpm, 2 min, 4° C.) and washed three times with FACS buffer. A fluorophore-conjugated anti-hFc gamma-APC (Jackson ImmunoResearch) detection antibody was added at 1:400 and samples were incubated for 1 h on ice in the dark, gently shaken. After a final wash, cells were resuspended in 100 μl of FACS buffer containing 0.2 μg/ml DAPI followed by readout on the flow cytometry machine (BD LSRFortessa Cell Analyzer; Cat #647177). Mean fluorescence intensity (MFI) of live, single cells was calculated in Flowjo 10.0.8 and exported into Graphpad Prism6 for EC50 determination.

Rat CCR7 = biological target: T3, Rat CCR7; assay: FACS, NIH3T3 cell series and CD4+ T cells
Method: as §1

[3] = biological target: T4, recombinant CCR7 (Origene #TP306614); assay: ELISA, plate coated with 3.5 ug/ml recombinant CCR7 (Origene #TP306614), antibody in serial dilution, detection anti-hFc gamma-HRP, absorbance at 650 nm
Method: Binding and affinity was also assessed in an ELISA-based assay using recombinant CCR7 (Origene #TP306614). Maxisorp™ 384-well plates (Thermo Nunc) were coated with 3.5 μg/ml of recombinant CCR7 diluted in PBS. After blocking with 3% BSA (bovine serum albumin) in PBS for 1 hr at room temperature, washing plates 3× with PBS-T (0.01% Tween 20 in PBS), primary antibodies were added in a serial dilution and incubated for 1 hr at room temperature.

| pHrodo (6 h MFI), uptake of pHrodo-labelled antibody at 5 ug/ml, CD4+ T cells (2000 receptors) (Human CCR7 [1]) [MFI] | pHrodo (6 h MFI), uptake of pHrodo-labelled antibody at 5 ug/ml, CMLT1 cells (19583 receptors) (Human CCR7 [1]) [MFI] | pHrodo (6 h MFI), uptake of pHrodo-labelled antibody at 5 ug/ml, DEL cells (110685 receptors) (Human CCR7 [1]) [MFI] | pHrodo (6 h MFI), uptake of pHrodo-labelled antibody at 5 ug/ml, JVM3 cells (8717 receptors) (Human CCR7 [1]) [MFI] | pHrodo (6 h MFI), uptake of pHrodo-labelled antibody at 5 ug/ml, Jeko-1 cells (28852 receptors) (Human CCR7 [1]) [MFI] | pHrodo (6 h MFI), uptake of pHrodo-labelled antibody at 5 ug/ml, KE97 cells (152093 receptors) (Human CCR7 [1]) [MFI] | pHrodo (6 h MFI), uptake of pHrodo-labelled antibody at 5 ug/ml, L540 cells (167549 receptors) (Human CCR7 [1]) [MFI] | pHrodo (6 h MFI), uptake of pHrodo-labelled antibody at 5 ug/ml, L1236 cells (61602 receptors) (Human CCR7 [1]) [MFI] | pHrodo (6 h MFI), uptake of pHrodo-labelled antibody at 5 ug/ml, MJ cells (111121 receptors) (Human CCR7 [1]) [MFI] | pHrodo (6 h MFI), uptake of pHrodo-labelled antibody at 5 ug/ml, MOTN1 cells (84200 receptors) (Human CCR7 [1]) [MFI] | pHrodo (6 h MFI), uptake of pHrodo-labelled antibody at 5 ug/ml, Mec2 cells (50840 receptors) (Human CCR7 [1]) [MFI] | EC50 (read off the curve) (Human CCR7 [2]) [nM] | binding result (Mouse CCR7) | binding result (Rat CCR7) | EC50 (read off the curve) [3] [nM] | Binder |
| --- | --- | --- | --- | --- | --- | --- | --- | --- | --- | --- | --- | --- | --- | --- | --- |
| 402 | 561 | 3780 | 146 | 1390 | 4420 | 11800 | 5820 | 3260 | 2540 | 3000 | 2 to 3 | – | – | – | B1 |
| – | – | – | – | – | – | – | – | – | – | – | – | no binding | no binding | – | B2 |
| 278 | 301 | 1910 | 148 | 450 | 1570 | 6840 | 1240 | 1650 | 1030 | 1340 | – | – | – | ~0.7 | B3 |
